From patent US20200069764A1 (Pfizer, published 2020)

B1: EDB-L19-diS-DM1 (antibody, human IgG1, kappa)
heavy: not shown
light: EIVLTQSPGTLSLSPGERATLSCRASQSVSSSFLAWYQQKPGQAPRLLIYYASSRATGIPDRFSGSGSGTDFTLTISRLEPEDFAVYYCQQTGRIPPTFGQGTKVEIKRTVAAPSVFIFPPSDEQLKSGTASVVCLLNNFYPREAKVQWKVDNALQSGNSQESVTEQDSKDSTYSLSSTLTLSKADYEKHKVYACEVTHQGLSSPVTKSFNRGEC
B2: EDB-L19-diS-C2OCO-1569 (antibody, human IgG1, kappa)
heavy: not shown
light: B1 light
B3: EDB-L19-diS-4574 (antibody, human IgG1, kappa)
heavy: not shown
light: B1 light

These binders were tested against EDB+ FN on WI38-VA13 cells (human, UniProt P02751 32-2477) (assay: cell-based or functional assay).
Chain of EDB+ FN on WI38-VA13 cells (P02751 32-2477): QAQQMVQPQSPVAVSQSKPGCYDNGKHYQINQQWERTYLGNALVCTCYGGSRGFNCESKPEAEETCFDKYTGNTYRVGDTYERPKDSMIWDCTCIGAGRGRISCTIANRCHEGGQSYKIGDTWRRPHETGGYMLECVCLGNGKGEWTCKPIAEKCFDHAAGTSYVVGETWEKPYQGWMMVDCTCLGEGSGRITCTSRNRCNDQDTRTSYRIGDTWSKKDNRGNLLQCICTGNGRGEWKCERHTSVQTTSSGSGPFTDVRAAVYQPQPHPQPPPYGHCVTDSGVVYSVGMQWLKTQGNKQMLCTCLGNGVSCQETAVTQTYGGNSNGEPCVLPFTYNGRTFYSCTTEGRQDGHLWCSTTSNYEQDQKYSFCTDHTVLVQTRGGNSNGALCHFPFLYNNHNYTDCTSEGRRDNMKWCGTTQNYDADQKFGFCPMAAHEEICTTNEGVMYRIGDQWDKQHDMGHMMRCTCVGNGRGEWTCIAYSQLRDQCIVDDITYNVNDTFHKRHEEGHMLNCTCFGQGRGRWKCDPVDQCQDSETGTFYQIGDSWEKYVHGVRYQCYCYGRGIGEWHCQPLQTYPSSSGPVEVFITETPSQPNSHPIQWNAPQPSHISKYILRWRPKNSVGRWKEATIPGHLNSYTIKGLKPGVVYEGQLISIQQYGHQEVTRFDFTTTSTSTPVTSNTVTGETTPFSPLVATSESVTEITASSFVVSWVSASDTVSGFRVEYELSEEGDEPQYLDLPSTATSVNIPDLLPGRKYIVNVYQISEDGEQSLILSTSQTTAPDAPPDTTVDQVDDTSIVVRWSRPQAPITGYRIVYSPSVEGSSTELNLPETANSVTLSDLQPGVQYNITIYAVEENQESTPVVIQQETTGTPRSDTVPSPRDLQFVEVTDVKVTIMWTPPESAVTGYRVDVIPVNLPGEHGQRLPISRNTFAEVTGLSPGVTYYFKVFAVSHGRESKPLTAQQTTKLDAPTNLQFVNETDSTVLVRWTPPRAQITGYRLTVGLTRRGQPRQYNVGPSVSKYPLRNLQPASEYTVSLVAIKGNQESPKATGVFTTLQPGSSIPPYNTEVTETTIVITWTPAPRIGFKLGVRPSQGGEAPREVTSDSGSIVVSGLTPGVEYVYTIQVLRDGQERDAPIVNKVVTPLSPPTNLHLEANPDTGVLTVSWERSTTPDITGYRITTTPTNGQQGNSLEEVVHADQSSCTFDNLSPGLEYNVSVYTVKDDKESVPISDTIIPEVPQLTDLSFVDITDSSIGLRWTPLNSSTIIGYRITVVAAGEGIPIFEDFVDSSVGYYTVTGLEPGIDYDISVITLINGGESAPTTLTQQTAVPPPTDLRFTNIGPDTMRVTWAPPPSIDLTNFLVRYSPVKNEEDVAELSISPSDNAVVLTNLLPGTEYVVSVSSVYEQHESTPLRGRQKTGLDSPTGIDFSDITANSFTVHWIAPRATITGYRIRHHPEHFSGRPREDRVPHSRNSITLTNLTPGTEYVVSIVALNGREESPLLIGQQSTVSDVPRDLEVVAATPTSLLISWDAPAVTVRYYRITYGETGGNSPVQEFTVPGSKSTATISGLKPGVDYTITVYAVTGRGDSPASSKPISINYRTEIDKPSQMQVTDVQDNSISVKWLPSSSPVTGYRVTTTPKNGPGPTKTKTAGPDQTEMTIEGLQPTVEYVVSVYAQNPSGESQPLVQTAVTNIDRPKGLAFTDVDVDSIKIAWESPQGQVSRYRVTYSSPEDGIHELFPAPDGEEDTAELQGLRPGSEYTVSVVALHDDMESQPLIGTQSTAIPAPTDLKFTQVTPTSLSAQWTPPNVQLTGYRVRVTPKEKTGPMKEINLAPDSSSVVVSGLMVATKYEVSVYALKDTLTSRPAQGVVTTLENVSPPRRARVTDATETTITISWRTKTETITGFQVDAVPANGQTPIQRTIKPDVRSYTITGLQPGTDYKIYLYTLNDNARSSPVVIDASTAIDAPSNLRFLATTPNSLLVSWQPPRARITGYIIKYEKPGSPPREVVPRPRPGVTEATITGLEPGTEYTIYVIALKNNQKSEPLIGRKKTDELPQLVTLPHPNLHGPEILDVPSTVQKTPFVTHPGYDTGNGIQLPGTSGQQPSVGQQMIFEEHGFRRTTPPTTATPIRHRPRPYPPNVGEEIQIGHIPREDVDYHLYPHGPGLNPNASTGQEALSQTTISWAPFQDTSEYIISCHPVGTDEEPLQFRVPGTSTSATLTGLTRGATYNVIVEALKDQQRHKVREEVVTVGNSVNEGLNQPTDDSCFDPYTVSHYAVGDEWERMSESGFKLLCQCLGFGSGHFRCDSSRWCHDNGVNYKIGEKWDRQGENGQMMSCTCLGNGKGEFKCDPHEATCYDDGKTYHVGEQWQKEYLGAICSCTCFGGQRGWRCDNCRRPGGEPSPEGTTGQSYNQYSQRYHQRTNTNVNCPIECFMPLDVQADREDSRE

| Binder | Avg IC50 (ng/ml of antibody), in vitro cytotoxicity on WI38-VA13 cells [ng/mL] |
| --- | --- |
| B1 | 268 |
| B2 | 21 |
| B3 | 487 |
